Results from PMC7889586, “Effects of Conserved Wedge Domain Residues on DNA Binding Activity of Deinococcus radiodurans RecG Helicase”.

What was measured:
DrRecG-WD WT = biological target: T1, DrRecG-WD WT (Deinococcus radiodurans R1, UniProt Q9RT50 158-235); test: EMSA; 100 nM HJ; near saturation at 160 nM protein; 5 mM EDTA; 50 mM Tris-HCl pH 8.0, 5 mM EDTA, 1 mM DTT, 100 ug/ml BSA, 6% glycerol, on ice 15 min; 100 nM HJ; 6% polyacrylamide gel at room temperature; details: protein: recombinant; tags: MBP (N-terminal fusion, pMAL-c2x); four-way junction of 4 strands, 1 copy each
T1 sequence: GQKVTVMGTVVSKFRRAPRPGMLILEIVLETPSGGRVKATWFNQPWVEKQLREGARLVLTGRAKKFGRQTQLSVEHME

EcRecG-WD QPW = biological target: T2, EcRecG-WD QPW (Escherichia coli MG1655, UniProt P24230 59-135, F99Q;S100P;A101W); test: EMSA; 100 nM HJ; significantly increased vs EcRecG-WD WT; 5 mM EDTA; 50 mM Tris-HCl pH 8.0, 5 mM EDTA, 1 mM DTT, 100 ug/ml BSA, 6% glycerol, on ice 15 min; 100 nM HJ; 6% polyacrylamide gel at room temperature; details: protein: recombinant; tags: MBP (N-terminal fusion, pMAL-c2x); four-way junction of 4 strands, 1 copy each
T2 sequence: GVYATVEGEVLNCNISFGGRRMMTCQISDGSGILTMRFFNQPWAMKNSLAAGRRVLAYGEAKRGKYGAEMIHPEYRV

B1: Holliday junction (oligos 1-4) (structured_DNA)
DNA 1: GTCGGATCCTCTAGACAGCTCCATGATCACTGGCACTGGTAGAATTCGGC
DNA 2: CAACGTCATAGACGATTACATTGCTACATGGAGCTGTCTAGAGGATCCGA
DNA 3: TGCCGAATTCTACCAGTGCCAGTGATGGACATCTTTGCCACGTTGACCC
DNA 4: TGGGTCAACGTGGGCAAGATGTCCTAGCAATGTAATCGTCTATGACGT
Question: Does B1 bind (DrRecG-WD WT)?
Answer: binds

Question: Does B1 bind (EcRecG-WD QPW)?
Answer: binds
